# Paper PMC10344873 (2023)
# B1: wild type p16-NLuc (mouse p16 tagged with NanoLuc luciferase) [mouse] / 3×Flag-tagged wild type CDK6 [mouse (by the printed Gene ID 12571; not stated in words for CDK6)] (parent complex)
# chain 1: MESAADRLARAAAQGRVHDVRALLEAGVSPNAPNSFGRTPIQVMMMGNVHVAALLLNYGADSNCEDPTTFSRPVHDAAREGFLDTLVVLHGSGARLDVRDAWGRLPLDLAQERGHQDIVRYLRSAGCSLCSAGWSLCTAGNVAQTDGHSFSSSTPRALELRGQSQEQS
# chain 2: MEKDSLSRADQQYECVAEIGEGAYGKVFKARDLKNGGRFVALKRVRVQTSEEGMPLSTIREVAVLRHLETFEHPNVVRLFDVCTVSRTDRETKLTLVFEHVDQDLTTYLDKVPEPGVPTETIKDMMFQLLRGLDFLHSHRVVHRDLKPQNILVTSSGQIKLADFGLARIYSFQMALTSVVVTLWYRAPEVLLQSSYATPVDLWSVGCIFAEMFRRKPLFRGSSDVDQLGKILDIIGLPGEEDWPRDVALPRQAFHSKSAQPIEKFVTDIDELGKDLLLKCLTFNPAKRISAYGALNHPYFQDLERYKDNLNSHLPSNQSTSELNTA
# Variants of: B1
# Experiment: LUMIER assay (Flag IP, on-bead NanoLuc bioluminescence); HEK293T cells, transient expression; n = 6 independent experiments; signals normalised on input; parent: 1; read off a plot
row,Variant,ratio to parent
1,chain 2 D102N,~0.5
2,chain 2 D110H,~0.6

# Variants of: B1
# Experiment: as above
# Remark: another data set of the same source
row,Variant,ratio to parent
1,chain 1 G15S,~0.18
2,chain 1 G47D,~0.08
3,chain 1 P73L,~0.6
